Experimental data reported in patent US20160326230A1 (SHANGHAI HENGRUI PHARMACEUTICAL, published 2016).
No end group written: not given here.

Target: the receptor on THP-1 cells
Assay: cell-based or functional assay

B1: recombinant human relaxin 800828 (WT, wild-type) (ligand)
chain 1: DSWMEEVIKLCGRELVRAQIAICGMSTWS
chain 2: QLYSALANKCCHVGCTKRSLARFC
modifications: not fully specified; ends and bridges not checked
  EC50 (ng/ml) of cAMP induced in THP-1 cells (cAMP ELISA): 3.03 ng/mL
